According to paper PMC6650474, “Plasmodium myosin A drives parasite invasion by an atypical force generating mechanism” (Nature Communications, 2019):

B1: Full-length PfMyoA (Plasmodium falciparum myosin A) heavy chain, wild type, co-expressed with the light chains PfMTIP and PfELC (complex)
chain 1: MAVTNEEIKTASKIVRRVSNVEAFDKSGSVFKGYQIWTDISPTIENDPNIMFVKCVVQQGSKKEKLTVVQIDPPGTGTPYDIDPTHAWNCNSQVDPMSFGDIGLLNHTNIPCVLDFLKHRYLKNQIYTTAVPLIVAINPYKDLGNTTNEWIRRYRDTADHTKLPPHVFTCAREALSNLHGVNKSQTIIVSGESGAGKTEATKQIMRYFASSKSGNMDLRIQTAIMAANPVLEAFGNAKTIRNNNSSRFGRFMQLVISHEGGIRYGSVVAFLLEKSRIITQDDNERSYHIFYQFLKGANSTMKSKFGLKGVTEYKLLNPNSTEVSGVDDVKDFEEVIESLKNMELSESDIEVIFSIVAGILTLGNVRLIEKQEAGLSDAAAIMDEDMGVFNKACELMYLDPELIKREILIKVTVAGGTKIEGRWNKNDAEVLKSSLCKAMYEKLFLWIIRHLNSRIEPEGGFKTFMGMLDIFGFEVFKNNSLEQLFINITNEMLQKNFVDIVFERESKLYKDEGISTAELKYTSNKEVINVLCEKGKSVLSYLEDQCLAPGGTDEKFVSSCATNLKENNKFTPAKVASNKNFIIQHTIGPIQYCAESFLLKNKDVLRGDLVEVIKDSPNPIVQQLFEGQVIEKGKIAKGSLIGSQFLNQLTSLMNLINSTEPHFIRCIKPNENKKPLEWCEPKILIQLHALSILEALVLRQLGYSYRRTFEEFLYQYKFVDIAAAEDSSVENQNKCVNILKLSGLSESMYKIGKSMVFLKQEGAKILTKIQREKLVEWENCVSVIEAAILKHKYKQKVNKNIPSLLRVQAHIRKKMVAQ
chain 2: MKQECNVCYFNLPDPESTLGPYDNELNYFTWGPGFEYEPEPQRKPLSIEESFENSEESEESVADIQQLEEKVDESDVRIYFNEKSSGGKISIDNASYNARKLGLAPSSIDEKKIKELYGDNLTYEQYLEYLSICVHDKDNVEELIKMFAHFDNNCTGYLTKSQMKNILTTWGDALTDQEAIDALNAFSSEDNIDYKLFCEDILQ
chain 3: MASDMEEKFREAFILFSSCSDHIEMYKFFELMNSFGIILTNDEKAALPNDINMDYWLNFAKKHYNYEQPFKHINNVNEQNTNVQIKIDNFLGIMKALDTRLTESDLNILLQITNPENKSTLNLKTVSQKLTESI
modifications: phosphoserine at 19 (96 ± 1% of the peptides); biotin on the biotin carboxyl carrier protein segment
B2: ΔN version of full-length PfMyoA heavy chain (residues Ala2 through Ser19 removed), co-expressed wit (complex)
chain 1: MNVEAFDKSGSVFKGYQIWTDISPTIENDPNIMFVKCVVQQGSKKEKLTVVQIDPPGTGTPYDIDPTHAWNCNSQVDPMSFGDIGLLNHTNIPCVLDFLKHRYLKNQIYTTAVPLIVAINPYKDLGNTTNEWIRRYRDTADHTKLPPHVFTCAREALSNLHGVNKSQTIIVSGESGAGKTEATKQIMRYFASSKSGNMDLRIQTAIMAANPVLEAFGNAKTIRNNNSSRFGRFMQLVISHEGGIRYGSVVAFLLEKSRIITQDDNERSYHIFYQFLKGANSTMKSKFGLKGVTEYKLLNPNSTEVSGVDDVKDFEEVIESLKNMELSESDIEVIFSIVAGILTLGNVRLIEKQEAGLSDAAAIMDEDMGVFNKACELMYLDPELIKREILIKVTVAGGTKIEGRWNKNDAEVLKSSLCKAMYEKLFLWIIRHLNSRIEPEGGFKTFMGMLDIFGFEVFKNNSLEQLFINITNEMLQKNFVDIVFERESKLYKDEGISTAELKYTSNKEVINVLCEKGKSVLSYLEDQCLAPGGTDEKFVSSCATNLKENNKFTPAKVASNKNFIIQHTIGPIQYCAESFLLKNKDVLRGDLVEVIKDSPNPIVQQLFEGQVIEKGKIAKGSLIGSQFLNQLTSLMNLINSTEPHFIRCIKPNENKKPLEWCEPKILIQLHALSILEALVLRQLGYSYRRTFEEFLYQYKFVDIAAAEDSSVENQNKCVNILKLSGLSESMYKIGKSMVFLKQEGAKILTKIQREKLVEWENCVSVIEAAILKHKYKQKVNKNIPSLLRVQAHIRKKMVAQ
chain 2: MKQECNVCYFNLPDPESTLGPYDNELNYFTWGPGFEYEPEPQRKPLSIEESFENSEESEESVADIQQLEEKVDESDVRIYFNEKSSGGKISIDNASYNARKLGLAPSSIDEKKIKELYGDNLTYEQYLEYLSICVHDKDNVEELIKMFAHFDNNCTGYLTKSQMKNILTTWGDALTDQEAIDALNAFSSEDNIDYKLFCEDILQ
chain 3: MASDMEEKFREAFILFSSCSDHIEMYKFFELMNSFGIILTNDEKAALPNDINMDYWLNFAKKHYNYEQPFKHINNVNEQNTNVQIKIDNFLGIMKALDTRLTESDLNILLQITNPENKSTLNLKTVSQKLTESI
modifications: biotin on the biotin carboxyl carrier protein segment
B3: Full-length PfMyoA heavy chain K764E (charge reversal in the converter), co-expressed with the light chains PfMTIP and PfELC (complex)
chain 1: MAVTNEEIKTASKIVRRVSNVEAFDKSGSVFKGYQIWTDISPTIENDPNIMFVKCVVQQGSKKEKLTVVQIDPPGTGTPYDIDPTHAWNCNSQVDPMSFGDIGLLNHTNIPCVLDFLKHRYLKNQIYTTAVPLIVAINPYKDLGNTTNEWIRRYRDTADHTKLPPHVFTCAREALSNLHGVNKSQTIIVSGESGAGKTEATKQIMRYFASSKSGNMDLRIQTAIMAANPVLEAFGNAKTIRNNNSSRFGRFMQLVISHEGGIRYGSVVAFLLEKSRIITQDDNERSYHIFYQFLKGANSTMKSKFGLKGVTEYKLLNPNSTEVSGVDDVKDFEEVIESLKNMELSESDIEVIFSIVAGILTLGNVRLIEKQEAGLSDAAAIMDEDMGVFNKACELMYLDPELIKREILIKVTVAGGTKIEGRWNKNDAEVLKSSLCKAMYEKLFLWIIRHLNSRIEPEGGFKTFMGMLDIFGFEVFKNNSLEQLFINITNEMLQKNFVDIVFERESKLYKDEGISTAELKYTSNKEVINVLCEKGKSVLSYLEDQCLAPGGTDEKFVSSCATNLKENNKFTPAKVASNKNFIIQHTIGPIQYCAESFLLKNKDVLRGDLVEVIKDSPNPIVQQLFEGQVIEKGKIAKGSLIGSQFLNQLTSLMNLINSTEPHFIRCIKPNENKKPLEWCEPKILIQLHALSILEALVLRQLGYSYRRTFEEFLYQYKFVDIAAAEDSSVENQNKCVNILKLSGLSESMYKIGKSMVFLKQEGAEILTKIQREKLVEWENCVSVIEAAILKHKYKQKVNKNIPSLLRVQAHIRKKMVAQ
chain 2: MKQECNVCYFNLPDPESTLGPYDNELNYFTWGPGFEYEPEPQRKPLSIEESFENSEESEESVADIQQLEEKVDESDVRIYFNEKSSGGKISIDNASYNARKLGLAPSSIDEKKIKELYGDNLTYEQYLEYLSICVHDKDNVEELIKMFAHFDNNCTGYLTKSQMKNILTTWGDALTDQEAIDALNAFSSEDNIDYKLFCEDILQ
chain 3: MASDMEEKFREAFILFSSCSDHIEMYKFFELMNSFGIILTNDEKAALPNDINMDYWLNFAKKHYNYEQPFKHINNVNEQNTNVQIKIDNFLGIMKALDTRLTESDLNILLQITNPENKSTLNLKTVSQKLTESI
modifications: biotin on the biotin carboxyl carrier protein segment
B4: Full-length PfMyoA heavy chain S19A (phospho-null), co-expressed with the light chains PfMTIP and PfELC (complex)
chain 1: MAVTNEEIKTASKIVRRVANVEAFDKSGSVFKGYQIWTDISPTIENDPNIMFVKCVVQQGSKKEKLTVVQIDPPGTGTPYDIDPTHAWNCNSQVDPMSFGDIGLLNHTNIPCVLDFLKHRYLKNQIYTTAVPLIVAINPYKDLGNTTNEWIRRYRDTADHTKLPPHVFTCAREALSNLHGVNKSQTIIVSGESGAGKTEATKQIMRYFASSKSGNMDLRIQTAIMAANPVLEAFGNAKTIRNNNSSRFGRFMQLVISHEGGIRYGSVVAFLLEKSRIITQDDNERSYHIFYQFLKGANSTMKSKFGLKGVTEYKLLNPNSTEVSGVDDVKDFEEVIESLKNMELSESDIEVIFSIVAGILTLGNVRLIEKQEAGLSDAAAIMDEDMGVFNKACELMYLDPELIKREILIKVTVAGGTKIEGRWNKNDAEVLKSSLCKAMYEKLFLWIIRHLNSRIEPEGGFKTFMGMLDIFGFEVFKNNSLEQLFINITNEMLQKNFVDIVFERESKLYKDEGISTAELKYTSNKEVINVLCEKGKSVLSYLEDQCLAPGGTDEKFVSSCATNLKENNKFTPAKVASNKNFIIQHTIGPIQYCAESFLLKNKDVLRGDLVEVIKDSPNPIVQQLFEGQVIEKGKIAKGSLIGSQFLNQLTSLMNLINSTEPHFIRCIKPNENKKPLEWCEPKILIQLHALSILEALVLRQLGYSYRRTFEEFLYQYKFVDIAAAEDSSVENQNKCVNILKLSGLSESMYKIGKSMVFLKQEGAKILTKIQREKLVEWENCVSVIEAAILKHKYKQKVNKNIPSLLRVQAHIRKKMVAQ
chain 2: MKQECNVCYFNLPDPESTLGPYDNELNYFTWGPGFEYEPEPQRKPLSIEESFENSEESEESVADIQQLEEKVDESDVRIYFNEKSSGGKISIDNASYNARKLGLAPSSIDEKKIKELYGDNLTYEQYLEYLSICVHDKDNVEELIKMFAHFDNNCTGYLTKSQMKNILTTWGDALTDQEAIDALNAFSSEDNIDYKLFCEDILQ
chain 3: MASDMEEKFREAFILFSSCSDHIEMYKFFELMNSFGIILTNDEKAALPNDINMDYWLNFAKKHYNYEQPFKHINNVNEQNTNVQIKIDNFLGIMKALDTRLTESDLNILLQITNPENKSTLNLKTVSQKLTESI
modifications: biotin on the biotin carboxyl carrier protein segment

What follows are binders tested against Skeletal muscle actin (chicken, UniProt P68139 1-377) (assay: cell-based or functional assay).
With B1 the “Km for skeletal actin of the actin-activated ATPase activity (Michaelis-Menten fit, 30 °C, 5 mM KCl)” value (“Km for skeletal actin” for short) was 30.3 µM.
For B2, the “Km for skeletal actin” value was 7.34 µM.
B3 was tested, and the “Km for skeletal actin” value was 18.2 µM.
For B4, the “Km for skeletal actin” value was 8.5 µM.
